The supplement of paper PMC9170038

Test system: MS2 coat protein
Assay: apparent KD of MS2 coat protein; designed switch direction (-1 OFF switch, 1 ON switch): 1; higher = weaker reporter binding
In short: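 The apparent KD reported per design is the median over clusters of curve fits to normalised cluster fluorescence. The RNA switches were transcribed on Illumina chips by stalled E. coli RNA polymerase. SNAP-549-labelled MS2 coat protein was titrated from 0.7 or 1.5 nM, doubling up to 3 µM, in Tris-HCl pH 7.5 buffer containing KCl, MgCl2, BSA, DTT, tRNA and Tween-20, with no input, 200 uM small-molecule ligand, or an oligonucleotide input.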

[1] = input ligand: microRNA oligo, concentration not stated
[2] = Eterna round: R95, input ligand: FMN 200 uM
[3] = Eterna round: R95, input ligand: microRNA oligo, concentration not stated
[4] = Eterna round: R95, input ligand: none

| Sequence | apparent KD of MS2 coat protein (input ligand: FMN 200 uM) [nM] | apparent KD of MS2 coat protein [1] [nM] | apparent KD of MS2 coat protein (input ligand: none) [nM] | apparent KD of MS2 coat protein [2] [nM] | apparent KD of MS2 coat protein [3] [nM] | apparent KD of MS2 coat protein [4] [nM] |
| --- | --- | --- | --- | --- | --- | --- |
| GAGUGGAGGAGAGGAUAUACAUUGAUAAUCACUGUAGAAGGUUCUAACAUGAGGAUCACCCAUGUAGGACUAUUCCUGAGAGUU [Parity 52 - Jieux - Same State NG 1] (Eterna round: R96, puzzle: Same State NG 1) | 8.87 | 10.1 | 12.5 | – | – | – |
| AGUCUACGGUGACGUAGACAGUAGUGCGUACAUGAGGAUCACCCAUGUCAUGUAAGAGUUACUUGUUCGUCUUGAAC [SENSOR #3] (puzzle: Sensor for hsa-mir-208a) | – | – | – | 20.4 | 16.9 | 20.2 |
| UGAAUAGUCACAGGAUAUCAUGCGAAAAUUGCGUGAGAAGGGUGGAUGUUGUGCUCAAAGUGCUACAUGAGGAUCACCCAUGUU [SameState NG1 #42] (Eterna round: R96, puzzle: Same State NG 1) | 337 | 234 | 187 | – | – | – |
| AAUUCAAACAGAGGAUAUUGUUUAUCUCUAUUGCAAGAAGGCUGAUCUUACUACUUACUUAUGAAACAUGAGGAUCACCCAUGU [JR_SSNG1_Sub019] (Eterna round: R96, puzzle: Same State NG 1) | – | 29.3 | – | – | – | – |
| GCUCGUAUGAUGACCGACAUGAGGAUCACCCAUGUAUGUUGGUAGGAUAUCUAUAUUAAGGAUAUAGAGAAGGGCCGAACGAGC [SameState NG3 #15] (Eterna round: R96, puzzle: Same State NG 3) | 26.5 | 33.6 | 40.1 | – | – | – |
| AGUUGAAAUACAGGAUAUAUAUUAUUUUUAUUUAUAGAAGGGUAAUCACAUGAGGAUCACCCAUGUAUAUACGAGGAAGAAGAG [JMF's solution 1] (Eterna round: R96, puzzle: Same State NG 1) | – | 182 | – | – | – | – |
| GGCCUCUGUCAAGGAUAUGCUACCGUUUCGGUAGCAGAAGGUGAUCACAUGAGGAUCACCCAUGUUUAGGCCCUCUGGCCCGCC (Eterna round: R96, puzzle: Same State NG 1) | 114 | 330 | 138 | – | – | – |
| GGCACAGCGUGAGGAUAUCGGUACGCACGUAGUCGAGAAGGUACCUGAAAUGGUACACAUGAGGAUCACCCAUGUGACUGGGCA [Eternabot solution 14] (Eterna round: R96, puzzle: Same State NG 1) | 40.7 | 27.1 | 41.6 | – | – | – |
| CUGAGCAAUCAAGGAUAUCACGUCGAUUAGACGUGAGAAGGUGAUCAUUACAUGAGGAUCACCCAUGUAUUACAUGGAGCUCAG [Brourd's SSNG1/1-A2 mod 2] (Eterna round: R96, puzzle: Same State NG 1) | – | 833 | – | – | – | – |
| CGAUGAAACAAAGGAAGAAGAGUUGAAGUACAUGAGGAUCACCCAUGUCAGAGCUUUUUGCUCGUCAUGAACAGGAA [JR_SHM208a_Sub004] (puzzle: Sensor for hsa-mir-208a) | – | – | – | 35.9 | 24.4 | 54.9 |
| AGCUAUUAAUCAGGAUAUGGUCACAUGAGGAUCACCCAUGUGUAGAUGAUAAAAUGUGGUCUACACUAGAAGGGAUUGCUAACA [SameState NG2 #60] (Eterna round: R96, puzzle: Same State NG 2) | 524 | 216 | 236 | – | – | – |
| GCAGAACAUGAGGAUCACCCAUGUCUCAAAUAUUGAGGAUAUGGACACGGUAUAUCCGAACCAGAAGGCAAACUGC [SS1 Teenbexe 19] (puzzle: Same State 1) | – | – | – | 55.8 | 74.5 | 64 |
| UGAAUAGUUACAGGAUAUCAUGCGAAAAUUGCGUGAGAAGGGUGGGUGUUGUGCGCAAAGUGCUACAUGAGGAUCACCCAUGUU [SameState NG1 #39] (Eterna round: R96, puzzle: Same State NG 1) | 278 | 23.1 | 277 | – | – | – |
| AACAUUCUAUCUGAGGAUAUCAUGAAAUAAACAUGAGGAUCACCCAUGUGCAGGAAAACUGCAUAUGAGAAGGCAGAUAGAUUGA [salish99_ss2_r3_022] (puzzle: Same State 2) | – | – | – | 44.9 | 1870 | 3320 |
| UAUCCAUAGAUAGGAUAUCAGUAUACAUGAGGAUCACCCAUGUUAUAUUUGGUUUUAAUUUAGUCUGAGAAGGAUCUUGAUGAA [SameState NG2 #2] (Eterna round: R96, puzzle: Same State NG 2) | 14.7 | 11.9 | 15.3 | – | – | – |
| GCUAGAAUAAAAGCCAACAUGAGGAUCACCCAUGUAUGUUGGCAGGAUAUCGUAUGCAAAGCAUACGAGAAGGGCCAUACUAGC [Mat - Same State NG 3 - JL Mod - D24] (Eterna round: R96, puzzle: Same State NG 3) | 49.8 | 96.7 | 121 | – | – | – |

| Sequence | apparent KD of MS2 coat protein (input ligand: FMN 200 uM) [nM] | apparent KD of MS2 coat protein [1] [nM] | apparent KD of MS2 coat protein (input ligand: none) [nM] | apparent KD of MS2 coat protein [2] [nM] | apparent KD of MS2 coat protein [3] [nM] | apparent KD of MS2 coat protein [4] [nM] |
| --- | --- | --- | --- | --- | --- | --- |
| AGCCGAAGCGCAGGAUAUACAUGUAUACAUGAGGAUCACCCAUGUAGCAACACGUGGUAGUGAUUGUAGAAGGGUGCUCGGCGC [Omei SS(NG)2 Cv15] (Eterna round: R96, puzzle: Same State NG 2) | – | 18.6 | – | – | – | – |
| GGUAAACAUGAGGAUCACCCAUGUAAUAUAAUGGGAGGAUAUCUGAAUUAAUUAAAUUAAGGAGAAGGCCUAAUGU [Mat - Same State 1 - Mod of Eli - D50] (puzzle: Same State 1) | – | – | – | 65.5 | 462 | 410 |
| GUUAUUUAUGCAGGAUAUGAUUAACAUGAGGAUCACCCAUGUGGUGUUGUGAGUAAGGAGAGUGAUCAGAAGGGCAUUUUUUUU [JMF's solution 77] (Eterna round: R96, puzzle: Same State NG 2) | 626 | 298 | 565 | – | – | – |
| GAGUAGUUGGGAGGAUAUCGAUUGUUAUAGAAUCGAGAAGGUUUUAACAUGAGGAUCACCCAUGUAGGACUAUUCCUGUGUAUC [Parity 73 - Jieux - Same State NG 1] (Eterna round: R96, puzzle: Same State NG 1) | 127 | 68.5 | 107 | – | – | – |
| UGAAUGAUGAUAGGAUAUACAUGAGGAAUCCUCGUAGAAGGAUCAUGACAUGAGGAUCACCCAUGUAGCGCUCCGUAGAGCGCA [JL SSNG1 1.20] (Eterna round: R96, puzzle: Same State NG 1) | 561 | 30.7 | 151 | – | – | – |
| AAUUAUUAACAUGAGGAUCACCCAUGUAUUAUUAUUAACAAGCUUUGCUCUACAUGGGUGCUCGUCUUAUUUAUUAA [AthenaIerokomos] (puzzle: Sensor for hsa-mir-208a version 2) | – | – | – | 13.7 | 68.6 | 32.5 |
| UUGCUCGUGUGAGGAUAUGCAGCCGUUUCGGCUGCAGAAGGUACUAUAAUACAUGAGGAUCACCCAUGUCUCUGUUGUUUCGUG [salish99_SSNG1_r04_931] (Eterna round: R96, puzzle: Same State NG 1) | 27.3 | 21 | 27.5 | – | – | – |
| AAGGGAUGAGCGUAGGAUAUAGGAGAAGUGACAUGAGGAUCACCCAUGUAAAAGGAGGGAUGAGACUAGAAGGACGAGGUAGGAG [JR_SS2_Sub059] (puzzle: Same State 2) | – | – | – | 132 | 84.6 | 91.5 |
| AGUCCAGCCUGAGCUGGACAAAAGCAUGUACAUGAGGAUCACCCAUGUUAUGUACAAGCUUUUUGCUCGUUUUAAUA [Zipper 49 - 15] (puzzle: Sensor for hsa-mir-208a) | – | – | – | 191 | 13.1 | 199 |
| UAAACUUCUUUUAGUGUGUUGCGAGUGAAACAUGAGGAUCACCCAUGUAAAGGAUUGUGGUAUUUUGUUCGUCUUAA [JR_SHM208A_Sub075] (puzzle: Sensor for hsa-mir-208a) | – | – | – | 75.2 | 41.4 | 98.8 |
| GUCCAAAACACAGGAUAUCCCGGUCAAAAUCCGGGAGAAGGGUGGCCACAUGAGGAUCACCCAUGUGACGUGCGAGAGGCACGA [Diessorire] (Eterna round: R96, puzzle: Same State NG 1) | 118 | 318 | 540 | – | – | – |
| GCUUCACAUGAGGAUCACCCAUGUCUUCGGAGUCGAGGAUAUGGUCACUGUAAACAGUGGCCAGAAGGCGAGGAGC [SS1 - Son of Teenbexe v7] (puzzle: Same State 1) | – | – | – | – | 46.4 | – |
| CCCUUCGGCACAUGAGGAUCACCCAUGUUUUAGUGGAAGAGGUAGGAUAUGGCUGGGAGCAGAAGCCAGAAGGACCAAAUAAAU [Attiatan] (Eterna round: R96, puzzle: Same State NG 3) | 22.1 | 19 | 9.8 | – | – | – |
| GGUGCCAAUAAAGCCUACAUGAGGAUCACCCAUGUAUGUAGGCAGGAUAUCGUUUGCUUUGCAAACGAGAAGGGCCUAGGCACC [JL SSNG3 1.21] (Eterna round: R96, puzzle: Same State NG 3) | 16.3 | 24.3 | 29.8 | – | – | – |
| GAGAGAUGGUUAGGAUAUUCGGUGAUAAUGAUAGAAGAAGGAACUGACAUGAGGAUCACCCAUGUGGGAAUAAUCCAGAGAGAG [Parity 20 - Jieux - Same State NG 1] (Eterna round: R96, puzzle: Same State NG 1) | 103 | 85 | 107 | – | – | – |
